Laboratory results: patent US20110091971A1, “Differentiation of Pluripotent Stem Cells” (priority 2008, published 2011)
“And” between values parts separate entries of the source, which are not always exact repeats. Identical values can stand only once.

System: H1 or H9 human embryonic stem cells
Test: Activin A bioassay: differentiation of human embryonic stem cells to definitive endoderm, cell number and SOX17 intensity by high content analysis (96-well, four days);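 for Cell Number average: Raw total cell count per well from high content imaging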;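 for Sox 17 Intensity average: total fluorescence of the cell multiplied by cell area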
Assay type: cell-based
Details: for Sox 17 Intensity % of control: control = R&D Sys Activin A 100 ng/ml on same plate
Text: Activin A is an important mediator of differentiation in a broad range of cell types. […] A bioassay that measures this differentiation in human embryonic stem cells was adapted in miniaturized format to 96-well plates for screening purposes. Validation was completed using treatment with commercial sources of activin A and Wnt3a recombinant proteins and measuring protein expression of the transcription factor SOX17, which is considered a representative marker of definitive endoderm.
Live Cell Assay: Briefly, clusters of H1 or H9 human embryonic stem cells were grown on growth factor-reduced MATRIGEL™ (Invitrogen; Cat #356231)-coated tissue culture plastic. Cells were passaged using collagenase (Invitrogen; Cat # Cat #17104-019) treatment and gentle scraping, washed to remove residual enzyme, and plated in a ratio of 1:1 (surface area) on growth factor-reduced MATRIGEL™-coated 96-well plates (black, 96-well; Packard ViewPlates; Cat #6005182). Cells were allowed to attach as clusters and then recover log phase growth over a 1 to 3 day period, feeding daily with MEF conditioned medium supplemented with 8 ng/ml bFGF (R&D Systems; Cat #233-FB).
The assay was initiated by washing the wells of each plate twice in PBS and followed by adding an aliquot (100 μl) of test sample in DMEM:F12 basal medium (Invitrogen; Cat #11330-032) to each well. Test conditions were performed in triplicate, feeding […] by aspirating and replacing the medium from each well with test samples over a total four day assay period. On the first and second day of assay, test samples added to the assay wells were diluted in DMEM:F12 with 0.5% FCS (HyClone; Cat #SH30070.03) and 20 ng/ml Wnt3a (R&D Systems; Cat #1324-WN). On the third and fourth day of assay, test samples added to the assay wells were diluted in DMEM:F12 with 2% FCS, without any Wnt3a. Positive control samples consisted of recombinant human activin A (Peprotech; Cat #120-14) added at a concentration of 100 ng/ml throughout assay plus Wnt3a (20 ng/ml) on days 1 and 2. Negative control samples omitted treatment with both activin A and Wnt3a.
High Content Analysis: At the conclusion of four days of culture, assay plates were washed twice with PBS, fixed with 4% paraformaldehyde at room temperature for 20 minutes, then washed three times with PBS and permeabilized with 0.5% Triton X-100 for 20 minutes at room temperature. Cells were washed again three times with PBS and blocked with 4% chicken serum (Invitrogen; Cat #16110082) in PBS for 30 minutes at room temperature. Primary antibody (goat anti-human SOX17; R&D Systems; cat #AF1924) was diluted 1:100 in 4% chicken serum and added to each well for one hour at room temperature. Alexa Fluor 488 conjugated secondary antibody (chicken anti-goat IgG; Molecular Probes; Cat #) was diluted 1:200 in PBS and added to each sample well after washing three times with PBS. To counterstain nuclei, 4 μg/ml Hoechst 33342 (Invitrogen; Cat #H3570) was added for ten minutes at room temperature. Plates were washed once with PBS and left in 100 μl/well PBS for imaging.
Imaging was performed using an IN Cell Analyzer 1000 (GE Healthcare) utilizing the 51008bs dichroic for cells stained with Hoechst 33342 and Alexa Fluor 488. Exposure times were optimized from positive control wells and from untreated negative control wells stained with secondary antibody alone. Images from 15 fields per well were acquired to compensate for any cell loss during the bioassay and subsequent staining procedures. Measurements for total cell number and total SOX17 intensity were obtained from each well using IN Cell Developer Toolbox 1.7 (GE Healthcare) software. Segmentation for the nuclei was determined based on grayscale levels (baseline range 100-300) and nuclear size. Averages and standard deviations were calculated for each replicate data set. […]

[1] = supernatant concentration 1x, assay dilution 1:20
[2] = supernatant concentration 10x, assay dilution 1:20
[3] = supernatant concentration 10x, assay dilution 1:40
[4] = supernatant concentration 10x, assay dilution 1:20, assay plates #007, #009, #010
[5] = supernatant concentration 50x, assay dilution 1:20, assay plates #008, #009

Molecule | Cell Number average [1] | Sox 17 Intensity average [1] | Sox 17 Intensity % of control [1] [%] | Cell Number average [2] | Sox 17 Intensity average [2] | Sox 17 Intensity % of control [2] | Cell Number average [3] | Sox 17 Intensity average [3] | Sox 17 Intensity % of control [3] [%] | Cell Number average [4] | Sox 17 Intensity average [4] | Cell Number average [5] | Sox 17 Intensity average [5] | Sox 17 Intensity % of control (supernatant concentration 50x, assay dilution 1:20) [%]
ACTN44: activin A variant peptide, SEQ ID 45 (protein) GLECDGKVNLCCKKQNFVSFKDIGWNDWIIAPSGYHANECSGKCPSHIAGTSGSSLSFHSTVINHYRMRGHSPFSDMGACCIPTKLRPMSMLYYDDGQNIIKKDIQNMIVEECGCS | 3657 | 5.01E+04 | 0.5 | 1508 | 3.24E+05 | 3.5% | 2272 | 1.58E+05 | 1.7 |  |  |  |  | 
ACTN47: activin A variant peptide, SEQ ID 48 (protein) GLECDGKVNYCCKKQNFVSFKDIGWNDWIIAPSGYHANECSGKCPSHIAGTSGSSLSFHSTVINHYRMRGHSPFSDMGSCCIPTKLRPMSMLYYDDGQNIIKKDIQNMIVEECGCS | 2624 | 7.48E+05 | 8.0 | 1399 | 4.27E+06 | 45.7% | 1610 | 1.09E+06 | 11.7 |  |  |  |  | 
ACTN45: activin A variant peptide, SEQ ID 46 (protein) GLECDGKVNTCCKKQNFVSFKDIGWNDWIIAPSGYHANECSGKCPSHIAGTSGSSLSFHSTVINHYRMRGHSPFANMGACCIPTKLRPMSMLYYDDGQNIIKKDIQNMIVEECGCS | 4591 | 1.48E+05 | 1.6 | 2058 | 1.13E+05 | 1.2% | 4482 | 2.30E+04 | 0.2 |  |  |  |  | 
ACTN52: activin A variant peptide, SEQ ID 53 (protein) GLECDGKVNICCKKQLFGKTKDIGWNDWIIAPSGYHGGSCTGECPSHIAGTSGSSLSFHSTVINHYRMRGHSPNANLKSCCSPTKLRPMSMLYYDDGQNIIKKDIQGMKVEECGCT | 3092 | 1.17E+05 | 1.3 | 4869 | 2.64E+04 | 0.3% | 3900 | 9.50E+04 | 1.0 |  |  |  |  | 
ACTN59: activin A variant peptide, SEQ ID 60 (protein) GLECDGKVNICCKKQLFGQTKDIGWNDWIIAPSGYHGGGCTGECPSHIAGTSGSSLSFHSTVINHYRMRGHSPNANLKSCCAPTKLRPMSMLYYDDGQNIIKKDIQGMKVEECGCV | 2613 | 1.09E+06 | 3.7 | 3304 | 2.11E+06 | 7.1% | 1776 | 1.81E+06 | 6.1 |  |  |  |  | 
ACTN63: activin A variant peptide, SEQ ID 64 (protein) GLECDGKVNICCKKQSFSQAKDIGWNDWIIAPSGYHGGGCTGECPSHIAGTSGSSLSFHSTVINHYRMRGHSPFANLKSCCSPTKLRPMSMLYYDDGQNIIKKDIQGMVVEECGCT | 3380 | 1.07E+06 | 3.6 | 1935 | 2.28E+06 | 7.7% | 2718 | 2.01E+06 | 6.8 |  |  |  |  | 
ACTN57: activin A variant peptide, SEQ ID 58 (protein) GLECDGKVNICCKKQSFGQAKDIGWNDWIIAPSGYHGGGCSGECPSHIAGTSGSSLSFHSTVINHYRMRGHSPWANLKSCCSPTKLRPMSMLYYDDGQNIIKKDIQNMKVEECGCT | 4485 | 9.99E+05 | 3.4 | 6471 | 1.74E+06 | 5.9% and 6.8% | 4594 | 1.30E+06 | 4.4 | 9442 | 1.70E+06 | 12697 | 7.82E+06 | 31.4
ACTN53: activin A variant peptide, SEQ ID 54 (protein) GLECDGKVNICCKKQEFGQAKDIGWNDWIIAPSGYHGGGCSGECPSHIAGTSGSSLSFHSTVINHYRMRGHSPWANLKSCCSPTKLRPMSMLYYDDGQNIIKKDIQGMKVEECGCT | 1610 | 1.14E+06 | 3.8 | 3229 | 1.51E+06 | 5.1% | 3476 | 9.41E+05 | 3.2 |  |  |  |  | 
ACTN62: activin A variant peptide, SEQ ID 63 (protein) GLECDGKVNICCKKQSFGQAKDIGWNDWIIAPSGYHGGGCTGECPSHIAGTSGSSLSFHSTVINHYRMRGHSPWANLKSCCSPTKLRPMSMLYYDDGQNIIKKDIQNMVVEECGCT | 1661 | 1.05E+06 | 3.6 | 5728 | 2.45E+05 | 0.8% | 3782 | 1.33E+06 | 4.5 |  |  |  |  | 
ACTN55: activin A variant peptide, SEQ ID 56 (protein) GLECDGKVNICCKKQSFGQTKDIGWNDWIIAPSGYHGGGCTGECPSHIAGTSGSSLSFHSTVINHYRMRGHSPWANLKSCCSPTKLRPMSMLYYDDGQNIIKKDIQGMVVEECGCT | 2425 | 3.41E+05 | 1.2 | 3611 | 2.67E+05 | 0.9% | 2761 | 5.44E+05 | 1.8 |  |  |  |  | 
